{
  "source": "patent US9084831B2",
  "about": "“Molecular probe precursor for imaging of pancreatic islet, and use thereof” (Kyoto University, priority 2008, dated 2015)",
  "origin": "cited, not measured here",
  "conditions": "mouse, in vivo, iv; cited from earlier work",
  "data": [
    {"substance": "^125I labeled exendin(9-39): exendin(9-39), a GLP-1R ligand, 125I-labeled by Bolton-Hunter labeling (PerkinElmer NEX 335)", "values": [
      {"measurement": "accumulation and binding among organs", "value": "accumulates selectively and specifically in the pancreas among organs"}
    ]}
  ]
}
